According to PMC3177959:

Target: M3 muscarinic acetylcholine receptor labeled at its N terminus with ECFP (human) (UniProt P20309)
Test: FRAP of the mobile partner with the other partner immobilised

UniProt P20309, sequence (P20309 whole entry): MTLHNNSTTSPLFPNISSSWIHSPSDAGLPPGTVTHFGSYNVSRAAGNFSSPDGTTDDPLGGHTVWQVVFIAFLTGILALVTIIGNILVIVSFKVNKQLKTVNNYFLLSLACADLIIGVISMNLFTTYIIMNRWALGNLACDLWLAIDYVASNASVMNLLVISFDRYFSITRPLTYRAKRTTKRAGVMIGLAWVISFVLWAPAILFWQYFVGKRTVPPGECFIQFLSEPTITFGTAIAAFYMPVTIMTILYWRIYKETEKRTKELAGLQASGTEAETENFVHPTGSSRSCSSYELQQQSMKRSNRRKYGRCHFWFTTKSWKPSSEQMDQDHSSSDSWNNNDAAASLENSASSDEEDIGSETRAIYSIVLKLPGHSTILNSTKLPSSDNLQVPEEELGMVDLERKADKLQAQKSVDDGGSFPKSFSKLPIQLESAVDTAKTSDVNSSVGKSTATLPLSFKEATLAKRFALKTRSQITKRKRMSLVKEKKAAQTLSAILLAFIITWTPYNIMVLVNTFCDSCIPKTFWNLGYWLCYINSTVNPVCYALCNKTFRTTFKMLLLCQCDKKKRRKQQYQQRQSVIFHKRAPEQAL

## Gq heterotrimer: venus-labeled Gαq with unlabeled Gβ1 and Gγ2 (from UniProt P21279;P62873;P59768) (complex)
  unrecovered fraction five minutes after photobleaching: 0.23
